Measured values from the supplement of paper PMC10567573.

B1: RHOBTB2 (parent)
chain: HHHHGRDFLLRAASFDVCESVDEA

Variants of: B1
Assay: protein stability index of a GFP-peptide fusion (GPS, HEK-293T) (PSI 1-6); higher = more stable
Conditions: c terminus: a fixed tail appended
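Note: lentivirally expressed fusions sorted by FACS into six bins by GFP to DsRed ratio, PSI derived from sequencing read proportions per bin multiplied by bin number.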

Protein stability index: each site, then its substitutions
R6: V 2.63, W 2.55, T 4.2, Y 3, S 3.85
F8: N 5.33, T 4.28, E 4.89, I 4.19, P 5.21, Q 5.04, A 5.04, V 4.66, K 4.61, D 5.15, L 4.45, Y 3.57, R 4.74, G 4.74, H 5.06, M 4.86, C 4.74, W 3.28, S 4.37
A13: L 3.2, C 1.87, Y 2.87, D 4.51, T 3.49, F 1.92, I 3.12, M 2.49, R 3.73, W 2.45, G 4.33, Q 3.84, V 3.14, E 4.38, P 4.66, K 4.09, N 4.38, H 3.75, S 3.96
A12: D 4.55, Q 3.73, R 4.37, I 2.54, P 4.52, V 3.03, H 2.94, E 5.13, M 2.96, N 3.82, F 1.92, C 2.4, W 2.67, Y 2.08, L 3.14, T 1.66, G 4.25, S 3.29, K 4.26
D7: V 2.87, F 2.06, Q 3.18, R 3.16, G 3.34, P 3.31, L 1.82, T 2.92, M 1.79, E 3.8, S 3.17, H 2.34, W 2.29, A 2.97, K 3.85, I 1.99, Y 2.04, C 1.92, N 3.25
L10: H 4.69, M 3.64, G 4.29, R 4.55, F 2.96, C 4.2, T 4.8, I 4.21, E 5.02, Q 4.86, S 3.81, N 5.01, A 3.94, W 2.34, P 4.18, Y 3.9, V 4.06, D 5.17, K 4.09
S14: A 3.55, G 3.15, P 4.22, W 2.66, D 4.13, R 2.62, F 3.03, Q 4.17, T 3.47, C 3.36, E 3.89, V 2.84, K 3.17, H 3.57, I 2.73, N 4.5, Y 2.79, M 3.05, L 2.88
L9: Q 5.09, F 3.2, H 5.1, E 4.89, V 4.33, G 4.6, A 4.98, K 4.35, T 4.53, S 4.03, Y 3.54, R 4.3, M 4.41, D 5.28, C 4.48, P 4.81, N 5.06, I 4.06
F15: A 4.78, N 4.35, M 4.74, I 3.94, G 4.38, H 4.11, E 4.86, C 4.57, D 5.01, K 4.58, L 3.24
R11: I 2.41, A 3.29, Q 3.94, K 4.17, D 5.18, F 1.67, W 1.44, L 2.35, H 4.06, Y 2.39, G 4.43, V 2.85, M 2.38, E 5.3, T 3.72, C 2.63, P 4.26, S 3.85, N 3.87
